The text below walks through data of PMC2773007.

The experiment addresses Dvl2 PRR2 mutant (Δ370–376), FLAG-tagged (human) (UniProt O14641).
Sequence of UniProt O14641 (O14641 other isoform, or with tags, fused parts or gaps mutant): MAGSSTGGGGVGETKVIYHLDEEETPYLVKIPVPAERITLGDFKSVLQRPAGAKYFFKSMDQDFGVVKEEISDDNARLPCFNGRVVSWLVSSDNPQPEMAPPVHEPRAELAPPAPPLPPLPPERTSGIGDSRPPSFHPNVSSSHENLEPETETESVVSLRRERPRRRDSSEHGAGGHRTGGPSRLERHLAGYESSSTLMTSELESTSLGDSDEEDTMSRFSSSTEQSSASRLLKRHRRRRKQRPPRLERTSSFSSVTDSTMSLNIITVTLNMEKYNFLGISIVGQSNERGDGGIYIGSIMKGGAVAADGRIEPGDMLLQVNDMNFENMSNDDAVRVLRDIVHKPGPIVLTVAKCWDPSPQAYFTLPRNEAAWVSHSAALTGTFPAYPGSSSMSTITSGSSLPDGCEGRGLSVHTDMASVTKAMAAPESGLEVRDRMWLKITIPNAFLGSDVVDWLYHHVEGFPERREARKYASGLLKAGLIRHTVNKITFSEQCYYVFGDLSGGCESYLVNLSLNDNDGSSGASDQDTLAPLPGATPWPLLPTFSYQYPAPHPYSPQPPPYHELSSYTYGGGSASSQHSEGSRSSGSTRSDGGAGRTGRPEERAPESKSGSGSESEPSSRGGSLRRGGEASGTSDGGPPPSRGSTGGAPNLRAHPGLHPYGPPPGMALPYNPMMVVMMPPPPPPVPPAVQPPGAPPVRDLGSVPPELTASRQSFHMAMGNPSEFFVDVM

“HA-tagged Grb2 (human growth factor receptor-bound-2) (from UniProt P62993 1-217) (natural protein)”: the sTF LEF/TCF luciferase reporter in HEK293 cells, co-expression of the Dvl2 mutant and Grb2 is 60 % decrease.
